Here are results for one molecule from PMC6702080 (2019).

The assay has as its target T1, BolA2 (Homo sapiens, UniProt Q9H3K6).
T1 chain: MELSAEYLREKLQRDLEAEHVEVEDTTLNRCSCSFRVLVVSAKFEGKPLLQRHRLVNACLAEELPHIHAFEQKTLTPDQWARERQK
Put plainly: pull-down.

For orientation: Kd means the constant that tells how readily two partners part at equilibrium. Low readings indicate higher affinity, high ones lower affinity.

B1: PCBP1 KH3 (protein)
chain: ASTQTTHELTIPNNLIGCIIGRQGANINEIRQMSGAQIKIANPVEGSSGRQVTITGSAASISLAQYLINAR
modifications: Fe(II)+GSH
B1: binding was characterised by a dissociation constant (Kd) of 900 nM.
